According to US6011146A, “Altered major histocompatibility complex (MHC) determinant and methods of using the determinant” (Institut Pasteur, priority 1995, dated 2000):
Values joined by “and” are separate entries in the source; they are usually repeats but may differ in a detail not shown here. Equal values may be shown once.

Key:
SC-K^d -15 (mouse) = SC-K^d -15 (mouse) (UniProt P01887)
[1] = molecular target: K^d molecules isolated from the spleen of BALB/c mice (mouse, UniProt P01887); test: direct peptide binding assay, peptide coated on plastic, 125I-labeled K^d

Row | Molecule | cpm bound (SC-K^d -15 (mouse)) | binding result [1]
1 | influenza NPR- 147-158 (peptide) | 214 cpm and 171 cpm | –
2 | TYQRTRALVTG [influenza NPR- 147-158] | – | no binding (tested: 10 µg/ml; pH 9.6)
